Reference: patent US20240189443A1, “PD-L1 AND TLR7 DOUBLE-TARGETING NANOBODY COUPLING DRUG AND USE THEREOF IN ANTI-TUMOR” (SHANGHAI INSTITUTE OF MATERIA MEDICA, CHINESE ACADEMY OF …, priority 2021, published 2024)
Several values for one entry are separate records, joined by “and”; a condition that tells them apart may be missing. Equal entries are not always repeated.

Columns and labels:
[1] = system: IFN-γ-induced high-expression PD-L1 CT26; test: IFN-γ-induced high-expression PD-L1 CT26 subcutaneous tumor-bearing model, conjugate vs combined administration; assay type: in vivo, BALB/c mouse; conditions: Nb16 or Nb16-SZU-101 10 mg/kg, SZU-101 0.5 mg/kg, intraperitoneal
Experimental: In an IFN-γ-induced high-expression PD-L1 CT26 subcutaneous tumor-bearing BALB/c mouse model, mice were randomly divided into four groups, namely an mFc group, an Nb16 group, an Nb16/SZU-101 combined administration group and an NB16-SZU-101 nanobody conjugate drug group, wherein the administration dosage of the mFc or Nb 16 or Nb16-SZU-101 was 10 mg/kg, the administration mode was intraperitoneal administration, the administration dosage of the SZU-101 was 0.5 mg/kg, and the administration mode was intraperitoneal administration; the drug was administered on Day 2, Day 6, Day 10 and Day 13 for a total of 4 times. Tumor sizes were measured 2-3 times per week, and tumor growth curves were drawn; and anatomical weighing and photographing were performed on mice at Day 14.

B16-F10 cells = test: Uninduced B16-F10 subcutaneous tumor-bearing model with low expression PD-L1; assay type: in vivo, C57BL/6 mouse; conditions: 10 mg/kg intraperitoneal
Experimental: The 6 to 8-week-old C57BL 6 mice were randomly divided into two groups, which were respectively as an mFc group and a nanobody-coupled drug NB 16-SZU-101 group. 1×10^6 B16-F10 cells (FIG. 9A) of 1×10^6 non-induced low-expression PD-L1 were planted under the underarm skin of mice (FIG. 9A). Administration was performed by using mFc and nanobody coupled drug Nb16-SZU-101, respectively; the administration dosage of the control drug and Nb16-SZU-101 was 10 mg/kg, and the volume is 200 μL; each group of drug delivery manners was intraperitoneal injection. Each group was administered at 2th, 5th, 8th and 11th days after tumor implantation, respectively, and the drug was administered for […]. On Day 12 mice would be euthanized.

CT26 tumor cells = test: Re-tumor model with CT26 cells in mice with regressed tumor; assay type: in vivo, mouse; conditions: re-tumor 1 week after tumor faded
From the text: Moreover, in the early model, the coupling compound therapy will cause tumor regression of up to 62.5% tumor-bearing mice (FIG. 10B); in the late model, the compound drug will cause 12.5% tumor-bearing mice to have tumor regression (FIG. 10D).

[2] = system: tumor immune microenvironment (CT26 subcutaneous tumors); test: Tumor immunotyping analysis by flow cytometry after conjugate administration; assay type: in vivo, BALB/c mouse; conditions: compared to mFc group
Experimental: At a mouse anatomical endpoint of example 8.1, subcutaneous tumors were taken, 150 mg of tumor tissue was taken and cut into meat paste, and the meat paste was oscillated and digested at 180 rpm for 1.5 h at 37° C. in hyaluronidase and collagenase IV, and processed into a single cell suspension. The pretreated cell suspension was divided into two parts, one part was used for immunotyping analysis of macrophages and dendritic cells, and one part was used for immune typing analysis of T cells and NK cells.
The suspension treatment of macrophages and dendritic cell samples: the cells were treated with 2-4 mL sterile red blood cell lysis solution for 8 min and terminated with PBS buffer solution to remove red blood cells and fragments in the sample suspension; the cell sample was cleaned for use.
T cell and NK cell sample suspension treatment: the cells were centrifuged with lymphocyte separation liquid to obtain a lymphocyte separation layer, that is, the lymphocyte separation layer was a tumor lymphocyte suspension, and wascleaned for use.
The macrophages and dendritic cell samples and T cells and NK cell samples were sealed at 4° C. with an Fc receptor confining liquid for 1 hour, and non-specific staining caused by the Fc receptor was removed; cell surface protein staining is performed, specifically: M1 macrophages (FITC Rat Anti-Mouse CD45, PE-Cyanine7 Rat Anti-Mouse F4/80 and APC Rat anti-Mouse CD86), M2 macrophages (FITC RATw Anti-Mouse CD45 and PE-Cynine 7 RAT Anti-Mouse F4/80), dendritic cells (PE-Cy7 Anti-Mouse CD11c, BB515 Rat Anti-Mouse I-A/I-E, PE Hamster Anti-Mouse CD80, and APC Rat anti-Mouse CD86), CD4+T cells and CD8+T cells (FITC Hamster Anti-Mouse CD3e, PerCP-Cy™ 5.5 Rat Anti-Mouse CD4 and APC Rat Anti-Mouse CD8a), Treg cells (FITC Hamster Anti-Mouse CD3e, PerCP-CYy™ 5.5 Rat Anti-Mouse CD4 and PE Rat Anti-Mouse CD25), NK cells (CD3-FITC, CD49b-APC, CD69-PE), followed by dyeing on ice for 20 min.; then intracellular protein staining is performed, and after the cell is subjected to a fixed membrane rupture treatment, the cell is subjected to membrane rupture dyeing, specifically: M2 macrophages (MS CD206 Alexa 647 and ANTI-MOUSE LAP PE), functional T cells(ANTI-MOUSE GRANZYME B (NGZB) PE) containing granzyme, functional T cells (PE Rat Anti-Mouse IFN-γ) containing IFN-γ, Treg cells (ANTI-MOUSE/RAT FOXP3 APC), and then stained for 20 min on ice; after cleaning, re-suspending the sample cell sap, and performing on-machine detection on the flow cytometer.

[3] = target: T1, PD-1/PD-L1 (HEK293T/mPD-L1) (Mus musculus, UniProt Q9EP73); test: Flow cytometry PD-1/PD-L1 blocking activity assay of the nanobody coupling drug; assay type: binding; conditions: mouse PD-1-biotin 20 μg/mL
T1 construct: expressed in transfected cells; host or cells: HEK293T
T1 sequence (Q9EP73 19-290): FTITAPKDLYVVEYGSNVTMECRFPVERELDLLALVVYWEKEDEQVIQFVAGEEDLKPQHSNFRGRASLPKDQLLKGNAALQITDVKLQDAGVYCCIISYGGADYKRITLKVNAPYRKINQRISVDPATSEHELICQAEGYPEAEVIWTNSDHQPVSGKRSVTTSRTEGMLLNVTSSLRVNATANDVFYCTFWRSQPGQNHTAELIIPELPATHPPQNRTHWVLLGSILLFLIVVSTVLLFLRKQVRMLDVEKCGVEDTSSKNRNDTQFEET

non-induced CT26 = test: Uninduced (low expression) PD-L1 CT26 subcutaneous tumor-bearing model; assay type: in vivo, BALB/c mouse; conditions: 10 mg/kg intraperitoneal, 4 doses
From the text: In FIG. 8A, it has been shown that the non-induced CT26 cell surface PD-L1 expression is approximately 17.3%, and the expression level of PD-L1 is increased to 98.1% only after IFN-γ induction. Therefore, we researched and compared the effects of the coupling compound in the non-induced and induced CT26 mouse tumor model, respectively.
In the two models, CT26 tumor cells were subcutaneously inoculated into female BALB/c mice before and after induction respectively to construct tumor-bearing mouse models, and the inoculation amount was 1×10^6 cells/one; the mice are randomly divided into two groupswith 6 mice of each group, that is, a blank control group mFc (the concentration is 10 mg/kg), and a coupling compound Nb16-SZU-101 group (the concentration was 10 mg/kg); the administration dosage was 200 μl, and the administration modes were both intraperitoneal administration; administration was performed on Day 2, Day 5, Day 8 and Day 11 respectively, and administration was carried out for 4 times; the size of the tumor was measured for 2-3 times every week, and a tumor growth curve was drawn; and anatomical weighing and photographing were performed on the mouse at Day 12.

B1: Nb16-SZU-101: PD-L1 and TLR7 dual-targeting nanobody coupling drug, Nb16 coupled with SZU-101-NHS active ester (conjugate)
chain: QVQLQESGGGSVQAGGSLRLSCAASGYTDRNYWMGWFRQAPGKEREGVAALYTRTGSTYYADSVKGRFTISHDNAKNTLYLQMNSLKPEDTAVYYCAADSNAYGLAPLHHYWGQGTQVTVSS
modifications: left off: a dimerising Fc or GST
Tumor inhibitory rate ([1]; Day 14, 4 doses): 81%
Anti-tumor effect [1]: significantly improved anti-tumor effect
Endpoint tumor Weight ([1]; individual mice, Day 14, 4 doses): 0.191 g and 0.146 g and 0.155 g and 0.084 g and 0.012 g and 0.087 g
Tumor inhibition rate (B16-F10 cells): about 68.2%
Tumor growth after re-tumor of CT26 cells (CT26 tumor cells): does not grow the tumor within 40 days
Expression of granzyme B and IFN-γ in tumor-infiltrating cytotoxic cells [2]: promote the expression
Function of tumor-infiltrating cytotoxic cells (CD8+T cells and NK cells) [2]: significantly increases
Infiltration of IFN-γ+CD4+T cells [2]: significantly increased
Infiltration of TGF-β+macrophages [2]: reduce the infiltration
Macrophage expression of PD-L1 in tumor microenvironment [2]: promotes macrophage expression of PD-L1
Re-polarization of tumor-associated macrophages [2]: promote the re-polarization
Maturation of dendritic cells ([2]; tumors of example 8.1): promotes maturation of dendritic cells
PD-1/PD-L1 blocking activity of conjugate compared with Nb16 [3]: does not change the blocking activity
Tumor growth inhibition rate (non-induced CT26): 78.9%
